Results from patent US20210332145A1 (SINGLE CELL TECHNOLOGY, published 2021).

T1: BCMA on cells (293T cells transfected with BCMA; H929, MM.1S and U266 cell lines expressing BCMA) (human, UniProt Q02223 1-184)
T1 construct: H929, MM.1S and U266 carry the native protein; also called B-cell Maturation Antigen; TNFRSF17
T1 sequence: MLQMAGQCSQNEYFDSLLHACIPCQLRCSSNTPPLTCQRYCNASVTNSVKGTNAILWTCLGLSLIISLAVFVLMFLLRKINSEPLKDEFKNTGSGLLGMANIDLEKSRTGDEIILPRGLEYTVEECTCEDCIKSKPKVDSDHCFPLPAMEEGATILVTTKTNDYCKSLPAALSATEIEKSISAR

T2: human BCMA with a His tag (ACROBiosystems, Catalog No.: BCA-H522y) (human)
T2 construct: Bought His-tagged recombinant protein; also called huBCMA-His; Recombinant human BCMA
T2 chain: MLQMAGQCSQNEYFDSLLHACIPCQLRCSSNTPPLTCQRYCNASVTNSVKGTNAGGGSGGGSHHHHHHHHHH

T3: mouse BCMA with a His tag (ACROBiosystems, Catalog No.: BCA-M52H3) (mouse)
T3 construct: Bought His-tagged recombinant protein
T3 chain: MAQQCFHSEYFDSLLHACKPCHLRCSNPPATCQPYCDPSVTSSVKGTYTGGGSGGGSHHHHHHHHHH

B1: SCT-Aa06(m/m) (antibody, V domains shown)
VH: EVQLQQSGPELVKPGNSVKISCKASGYSFTGYFMNWVMQSHGKSLEWIGRINPYNGDTFYNQKFKGKATLTVDKSSSTAHMELRSLTSEDSAVYYCARLDYTNYNSYPMDYWGQGTSVTVSS
VL: DIQMTHTTSSLSASLGDRVTISCSASQGISNYLNWYLQKPDGTVKLLIYYTSNLHSGVPSRFSGSGSGTDFSLTISNLQPEDIATYYCQQYSKFPWTFGGGTKLEIK
notes: Full IgG format: mouse IgG1 heavy chain constant region, mouse kappa light chain constant region
B2: SCT-Aa08(h/h) (antibody, V domains shown)
VH: QVQLQQSDAELVKPGASVKISCKVSGYTFIDHTIHWMKQRPEQGLEWIGYIYPRIDSSKCNEKFKDKATLTADKSSNTAYIQLNSLTSEDSAVYFCARWDYEGFDYWGQGTTLTVSS
VL: DIVMTQSPATLSVTPGDRVSLSCRASQSISDYLHWYQQKSHESPRLLIKYASQSISGIPSRFSGSGSGSDFTLSINSVEPEDVGVYYCQNGHSFPPTFGSGTKLEIK
notes: Full IgG format, chimeric: human IgG1 heavy chain constant region, human kappa light chain constant region
B3: SCT-Aa19(h/h) (antibody, V domains shown)
VH: QVQLQQSGPELVKPGASVRISCKASGCTFTDYYIHWVKQRPGQGLEWIGWIYPGNLNSKFNEKFRDKATLTADNSSSTAYMQLSSLTSEDSAVYFCARYNYEGYFDYWGQGTTLTVSS
VL: DIVMTQSPATLSVTPGDRVSLSCRASQSIADSLHWYQQKSHESPRLLIKYASHSISGIPSRFRGSGSGSDFTLSINSVEPEDVGVYYCQNGHSFPLTFGAGTKLELK
notes: as for B2
B4: SCT-Aa08(m/m) (antibody, V domains shown)
VH: QVQLQQSDAELVKPGASVKISCKVSGYTFIDHTIHWMKQRPEQGLEWIGYIYPRIDSSKCNEKFKDKATLTADKSSNTAYIQLNSLTSEDSAVYFCARWDYEGFDYWGQGTTLTVSS
VL: DIVMTQSPATLSVTPGDRVSLSCRASQSISDYLHWYQQKSHESPRLLIKYASQSISGIPSRFSGSGSGSDFTLSINSVEPEDVGVYYCQNGHSFPPTFGSGTKLEIK
notes: as for B1
B5: SCT-Aa11(h/h) (antibody, V domains shown)
VH: QVQLQQSDAELVKPGASVKISCKVSGYTFTDHTIHWMKQRPEQGLEWIGYIFPRDGTTKFNEMFKGKATLTADKSSSTAYMELNSLTSEDSAVYFCARWDYEGFDYWGQGTTLTVSS
VL: DIVMTQSPATLSVTPGDRVSLSCRASQSISDYLHWYQQKSHESPRLLIKYASQFISGIPSRFRGSGSGSDFTLSINSVEPEDVGVYYCQNGHSFPPTFGSGTKLEIK
notes: as for B2
B6: SCT-Aa10(h/h) (antibody, V domains shown)
VH: QVQLQQSDAELVKPGASVKISCKVSGYTFTDHTIHWMKQRPEQGLEWIGYIFPRDGNTKYNEKFKGKATMTADKSSSTAYMQLNSLTSEDSAVYFCARWDYEGFDCWGQGTTLTVSS
VL: DIVMTQSPATLSVTPGDRVSLSCRASQSISDYLHWYQQKSHESPRLLIKYASQSISGIPSRFSGSGSGSDFTLSINSVEPEDVGVYFCQNGHSFPPTFGSGTKLEIK
notes: as for B2
B7: SCT-Aa14(m/m) (antibody, V domains shown)
VH: QVQLQQSDAELVKPGASVKISCKVSSYTFTDHTIHWMKQRPEQGLEWIGYIFPRDGSTKYNEKFKGKATLTADKSSSTAYMQLNSLTSEDSAVYFCARWDYEGFDYWGQGTTLTVSS
VL: DIVMTQSPATLSVTPGDRVSLSCRASQNISDYLHWYQQKSHESPRLLIKYASQSISGIPSRFSGSGSGSDFTLSINSVEPEDVGVYYCQNGHSFPPTFGSGTKLEIK
notes: as for B1
B8: SCT-Aa10(m/m) (antibody, V domains shown)
VH: QVQLQQSDAELVKPGASVKISCKVSGYTFTDHTIHWMKQRPEQGLEWIGYIFPRDGNTKYNEKFKGKATMTADKSSSTAYMQLNSLTSEDSAVYFCARWDYEGFDCWGQGTTLTVSS
VL: DIVMTQSPATLSVTPGDRVSLSCRASQSISDYLHWYQQKSHESPRLLIKYASQSISGIPSRFSGSGSGSDFTLSINSVEPEDVGVYFCQNGHSFPPTFGSGTKLEIK
notes: as for B1
B9: SCT-Aa15(h/h) (antibody, V domains shown)
VH: QVQLQQSDAELVKPGPSVKISCKVSGSTFTDHTVHWMKQRPEQGLEWIGYVYPRDGSTRYNEKFKGKATLTADKSSSTAYMQLNSLTSEDSAVYFCARWDYEGFDYWGQGTTLTVSS
VL: DIVMTQSPATLSVTPGDRVSLSCRASQNISDYLHWYQQKSHESPRLLIKYASQSISGIPSRFSGSGSGSDFTLSINSVEPEDVGVYYCQNGHSFPPTFGSGTKLKIK
notes: as for B2
B10: SCT-Aa11(m/m) (antibody, V domains shown)
VH: QVQLQQSDAELVKPGASVKISCKVSGYTFTDHTIHWMKQRPEQGLEWIGYIFPRDGTTKFNEMFKGKATLTADKSSSTAYMELNSLTSEDSAVYFCARWDYEGFDYWGQGTTLTVSS
VL: DIVMTQSPATLSVTPGDRVSLSCRASQSISDYLHWYQQKSHESPRLLIKYASQFISGIPSRFRGSGSGSDFTLSINSVEPEDVGVYYCQNGHSFPPTFGSGTKLEIK
notes: as for B1
B11: SCT-Aa01(h/h) (antibody, V domains shown)
VH: DVQLQESGPGLVKPSQSLSLTCSVTGYSITSGYYWNWIRQFPGNKLEWMGYIRYDGSNNYNPSLKNRISITRDTSKNQFFLKLNSVTTEDTATYYCAPYDYDYAMDFWGQGTSVTVSS
VL: DIQMTQSPASLSASVGETVTITCRASGNIHNYLAWYQQKQGKSPQLLVYNAKTLAHGVPSRFSGSGSGTQYSLKITSLQPEDFGTYYCQHFWSTPFTFGSGTKLEIK
notes: as for B2

Columns and labels:
[1] = biological target: T1, BCMA on cells (293T cells transfected …); test: flow cytometry, H929 cells
[2] = biological target: T2, human BCMA with a His tag …; test: SPR, Biacore T200
Method: The binding affinity of select anti-BCMA was measured on a surface plasmon resonance (SPR) instrument, Biacore T200™, against human BCMA by a method known in the art.
In experiments performed essentially as described above, a subset of anti-human BCMA antibodies of the present disclosure bind human BCMA with a His tag (ACROBiosystems, Beijing, China, Catalog No.: BCA-H522y, SEQ ID NO:2) with affinity shown in Table 6.

[3] = biological target: T1, BCMA on cells (293T cells transfected …); test: flow cytometry, H929 cells; remark: listed apart in the source
Method: A cell line expressing BCMA, H929, was used to assess binding by anti-BCMA antibodies on the native protein on the cell surface by flow cytometry according to the known art. A subset of anti-human BCMA antibodies were assayed for binding to H929 and the fraction of cells bound the labeled antibody above background defined by control is shown in Table 8.

[4] = biological target: T2, human BCMA with a His tag …; test: ELISA, plate-coated human BCMA-His
Method: (§1) The recombinantly expressed antibodies were used to assess binding activity to BCMA of different species origins by conventional ELISA according to the known art. Recombinant human BCMA, cyno BCMA, and mouse BCMA were coated onto ELISA plates to detect binding at serially diluted concentrations of the anti-BCMA antibody preparations.
(§2) The ability for antibodies of the present disclosure to bind human BCMA was measured with an ELISA assay. For the BCMA binding assay, a 96-well plate (Nunc) is coated with human BCMA with a His tag (ACROBiosystems, Catalog No.: AC108P1-180611F2-Bulk, SEQ ID NO:2) at 0.2 μg/well overnight at 4° C. Wells are blocked for 2 h with blocking buffer (PBS containing 3% bovine serum albumin). Wells are washed three times with PBS containing 0.1% Tween-20. Anti-human BCMA antibodies of the present disclosure or control IgG (100 μL) is then added and incubated at room temperature for 1 h. After washing, the plate is incubated with 100 μL of goat anti-mouse IgG Fcγ Fragment Specific-HRP conjugate (Jackson ImmunoResearch) at room temperature for 1 h. The plates are washed and then incubated with 100 μL of 3,3′,5,5′-tetra-methylbenzidine. The absorbance at 450 nm is read on a microplate reader. The half maximal effective concentration (EC50) is calculated using GraphPad Prism 6 software.
In experiments performed essentially as described above, anti-human BCMA antibodies of the present disclosure bind human BCMA with a His tag (ACROBiosystems, Beijing, China, Catalog No.: BCA-H522y, SEQ ID NO:2) with an EC50 values shown in Table 3.

[5] = biological target: T1, BCMA on cells (293T cells transfected …); test: flow cytometry, 293T cells transfected with BCMA, above parental 293T background
[6] = biological target: T3, mouse BCMA with a His tag …; test: ELISA, plate-coated mouse BCMA-His
Method: as §1, §2
In experiments performed essentially as described above, anti-human BCMA antibodies of the present disclosure bind mouse BCMA with a His tag (ACROBiosystems, Beijing, China, Catalog No.: BCA-M52H3, SEQ ID NO:109) with an EC50 values shown in Table 5.

| Binder | Mean fluorescent intensity [1] | Kd [2] [nM] | koff [2] [s⁻¹] | kon [2] [M⁻¹ s⁻¹] | Positive (%) [3] [%] | EC50 [4] [ng/mL] | Positive (%) [5] [%] | EC50 [6] [ng/mL] |
| --- | --- | --- | --- | --- | --- | --- | --- | --- |
| B1 | 4300 | 5.16 | 0.0163 | 3.15e+06 | 99.9 | 2.34 | 91.6 |  |
| B2 | 454 | 17.6 | 0.0592 | 3.36e+06 | 92.5 | 3.74 | 57.5 | 377 |
| B3 | 351 | 1.19 | 0.0062 | 5.21e+06 | 85.1 | 3.38 | 51 |  |
| B4 | 1820 | 15.7 | 0.0527 | 3.36e+06 | 99.9 | 2.46 | 70.6 | 682 |
| B5 | 179 | 47.1 | 0.113 | 2.4e+06 | 53.7 | 3.85 | 34.9 |  |
| B6 | 495 | 9.17 | 0.0284 | 3.1e+06 | 85.5 | 2.86 | 57.9 | 941 |
| B7 | 475 | 20.4 | 0.0376 | 1.85e+06 | 75.1 | 2.52 | 52.2 | 2340 |
| B8 | 2960 | 9.56 | 0.0224 | 2.34e+06 | 99.9 | 2.57 | 82.9 | 8030 |
| B9 | 141 | 1.19 | 0.0062 | 5.21e+06 | 34.8 | 3.71 | 32 | 226 |
| B10 | 1520 | 42 | 0.0945 | 2.25e+06 | 99.9 | 2.38 | 34.6 |  |
| B11 | 411 | 43.4 | 0.0355 | 819000 | 55.2 | 3.38 | 12.3 |  |
